Numbering of substitutions follows the chain as printed. Numbers in names are those of the source.
B1: Fab VH1-46_IGHD6-6*01_IGHJ1*01 S102A/S103P/S104F/H111F G56K & L6_IGKJ1*01 (Fab, V domains shown)
VH: QVQLVQSGAEVKKPGASVKVSCKASGYTFTSYYMHWVRQAPGQGLEWMGIINPSGKSTSYAQKFQGRVTMTRDTSTSTVYMELSSLRSEDTAVYYCAREEYAPFSAEYFQFWGQGTLVTVSS
VL: not shown
notes: Fab from E. coli; CH1 (with His and Flag tags) and kappa CL come from the expression plasmids; also called APFF G56K
B2: Fab VH1-46_IGHD6-6*01_IGHJ1*01 S102A/S103P/S104F/H111F N52P & L6_IGKJ1*01 (Fab, V domains shown)
VH: B1 VH with N52P, K56G
VL: not shown
notes: Fab from E. coli; CH1 (with His and Flag tags) and kappa CL come from the expression plasmids; also called APFF N52P
B3: Fab VH1-46_IGHD6-6*01_IGHJ1*01 S102A/S103P/S104F/H111F N52Q & L6_IGKJ1*01 (Fab, V domains shown)
VH: B1 VH with N52Q, K56G
VL: not shown
notes: Fab from E. coli; CH1 (with His and Flag tags) and kappa CL come from the expression plasmids; also called APFF N52Q
B4: Fab VH1-46_IGHD6-6*01_IGHJ1*01 S102A/S103P/S104F/H111F N52S & L6_IGKJ1*01 (Fab, V domains shown)
VH: B1 VH with N52S, K56G
VL: not shown
notes: Fab from E. coli; CH1 (with His and Flag tags) and kappa CL come from the expression plasmids; also called APFF N52S
B5: Fab VH1-46_IGHD6-6*01_IGHJ1*01 S102A/S103P/S104F/H111F G56S & L6_IGKJ1*01 (Fab, V domains shown)
VH: B1 VH with K56S
VL: not shown
notes: Fab from E. coli; CH1 (with His and Flag tags) and kappa CL come from the expression plasmids; also called APFF G56S
B6: Fab VH1-46_IGHD6-6*01_IGHJ1*01 S102A/S103P/S104F/H111F N52R & L6_IGKJ1*01 (Fab, V domains shown)
VH: B1 VH with N52R, K56G
VL: not shown
notes: Fab from E. coli; CH1 (with His and Flag tags) and kappa CL come from the expression plasmids; also called APFF N52R
B7: Fab VH1-46_IGHD6-6*01_IGHJ1*01 S102A/S103P/S104F/H111F G56V & L6_IGKJ1*01 (Fab, V domains shown)
VH: B1 VH with K56V
VL: not shown
notes: Fab from E. coli; CH1 (with His and Flag tags) and kappa CL come from the expression plasmids; also called APFF G56V
B8: Fab VH1-46_IGHD6-6*01_IGHJ1*01 S102A/S103P/S104F/H111F N52A & L6_IGKJ1*01 (Fab, V domains shown)
VH: B1 VH with N52A, K56G
VL: not shown
notes: Fab from E. coli; CH1 (with His and Flag tags) and kappa CL come from the expression plasmids; also called APFF N52A
B9: Fab VH1-46_IGHD6-6*01_IGHJ1*01 S102A/S103P/S104F/H111F G56R & L6_IGKJ1*01 (Fab, V domains shown)
VH: B1 VH with K56R
VL: not shown
notes: Fab from E. coli; CH1 (with His and Flag tags) and kappa CL come from the expression plasmids; also called APFF G56R
B10: Fab VH1-46_IGHD6-6*01_IGHJ1*01 S102A/S103P/S104F/H111F G56W & L6_IGKJ1*01 (Fab, V domains shown)
VH: B1 VH with K56W
VL: not shown
notes: Fab from E. coli; CH1 (with His and Flag tags) and kappa CL come from the expression plasmids; also called APFF G56W
B11: Fab VH1-46_IGHD6-6*01_IGHJ1*01 S102A/S103P/S104F/H111F N52T & L6_IGKJ1*01 (Fab, V domains shown)
VH: B1 VH with N52T, K56G
VL: not shown
notes: Fab from E. coli; CH1 (with His and Flag tags) and kappa CL come from the expression plasmids; also called APFF N52T
B12: Fab VH1-46_IGHD6-6*01_IGHJ1*01 S102A/S103P/S104F/H111F N52L & L6_IGKJ1*01 (Fab, V domains shown)
VH: B1 VH with N52L, K56G
VL: not shown
notes: Fab from E. coli; CH1 (with His and Flag tags) and kappa CL come from the expression plasmids; also called APFF N52L
B13: Fab VH1-46_IGHD6-6*01_IGHJ1*01 S102A/S103P/S104F/H111F N52W & L6_IGKJ1*01 (Fab, V domains shown)
VH: B1 VH with N52W, K56G
VL: not shown
notes: Fab from E. coli; CH1 (with His and Flag tags) and kappa CL come from the expression plasmids; also called APFF N52W
B14: Fab VH1-46_IGHD6-6*01_IGHJ1*01 S102A/S103P/S104F/H111F G56I & L6_IGKJ1*01 (Fab, V domains shown)
VH: B1 VH with K56I
VL: not shown
notes: Fab from E. coli; CH1 (with His and Flag tags) and kappa CL come from the expression plasmids; also called APFF G56I
B15: Fab VH1-46_IGHD6-6*01_IGHJ1*01 S102A/S103P/S104F/H111F N52G & L6_IGKJ1*01 (Fab, V domains shown)
VH: B1 VH with N52G, K56G
VL: not shown
notes: Fab from E. coli; CH1 (with His and Flag tags) and kappa CL come from the expression plasmids; also called APFF N52G
B16: Fab VH5-51_IGHD5-18*01>3_IGHJ4*01 G100K/G104T & V3-4_IGLJ1*01 V91L (Fab, V domains shown)
VH: EVQLVQSGAEVKKPGESLKISCKGSGYSFTSYWIGWVRQMPGKGLEWMGIIYPGDSDTRYSPSFQGQVTISADKSISTAYLQWSSLKASDTAMYYCARRKYSYTYDYFDYWGQGTLVTVSS
VL: QTVVTQEPSFSVSPGGTVTLTCGLSSGSVSTSYYPSWYQQTPGQAPRTLIYSTNTRSSGVPDRFSGSILGNKAALTITGAQADDESDYYCLLYMGSGISYVFGTGTKVTVL
notes: Fab; expressed with CH1 (His and Flag tags) and lambda CL from the expression plasmids; also called H:KT & V91L
B17: Fab VH5-51_IGHD5-18*01>3_IGHJ4*01 G100K/G104T & V3-4_IGLJ1*01 V91N (Fab, V domains shown)
VH: B16 VH
VL: B16 VL with L91N
notes: Fab; expressed with CH1 (His and Flag tags) and lambda CL from the expression plasmids; also called H:KT & V91N
B18: Fab VH5-51_IGHD5-18*01>3_IGHJ4*01 G100K/G104T & V3-4_IGLJ1*01 V91R (Fab, V domains shown)
VH: B16 VH
VL: B16 VL with L91R
notes: Fab; expressed with CH1 (His and Flag tags) and lambda CL from the expression plasmids; also called H:KT & V91R
B19: Fab VH5-51_IGHD5-18*01>3_IGHJ4*01 G100K/G104T & V3-4_IGLJ1*01 V91W (Fab, V domains shown)
VH: B16 VH
VL: B16 VL with L91W
notes: Fab; expressed with CH1 (His and Flag tags) and lambda CL from the expression plasmids; also called H:KT & V91W
B20: Fab VH5-51_IGHD5-18*01>3_IGHJ4*01 G100K/G104T & V3-4_IGLJ1*01 V91T (Fab, V domains shown)
VH: B16 VH
VL: B16 VL with L91T
notes: Fab; expressed with CH1 (His and Flag tags) and lambda CL from the expression plasmids; also called H:KT & V91T
B21: Fab VH5-51_IGHD5-18*01>3_IGHJ4*01 G100K/G104T & V3-4_IGLJ1*01 V91S (Fab, V domains shown)
VH: B16 VH
VL: B16 VL with L91S
notes: Fab; expressed with CH1 (His and Flag tags) and lambda CL from the expression plasmids; also called H:KT & V91S

Biological target: T1, Recombinant Human DLL4 (delta-like protein 4) (human, UniProt Q9NR61 27-524)
T1 construct: Bought recombinant protein (R&D Systems Cat#1506-D4/CF); also called rHuman DLL4
Test: ELISA on plate-coated DLL4, 100 nM Fab

ELISA signal | Binder
0.19 | B1
0.18 | B2
0.1 | B3
0.28 | B4
0.18 | B5
0.01 | B6
0.23 | B7
0.12 | B8
0.2 | B9
0.54 | B10
0.61 | B11
1.06 | B12
0.42 | B13
0.23 | B14
0.47 | B15

Biological target: T1, Recombinant Human DLL4 (delta-like …)
Test: ECL 96-well plate assay on immobilised DLL4, 10 nM Fab

ECL signal | Binder
66200 | B1
44800 | B2
60600 | B3
62200 | B4
65700 | B5
21600 | B6
68600 | B7
52500 | B8
64300 | B9
69600 | B10
66800 | B11
75500 | B12
87000 | B13
77000 | B14
55600 | B15

Biological target: T2, Recombinant Human DLL4 (delta-like protein 4) (human, UniProt Q9NR61 27-524)
T2 construct: Bought recombinant human DLL4 (R&D Systems Cat#1506-D4/CF); also called rHuman DLL4
Test: ECL (MSD) binding assay, immobilised DLL4, 10 nM Fab;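 also: fab binding read as electrochemiluminescence via a TAG-labelled detection antibody, 1 h incubations at 20 °C, antigen signal compared with each well's blank, ratio of at least 4 scored as binder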

ECL Signal [10 nM Fab] | Binder
41600 | B16
46700 | B17
13400 | B18
12500 | B19
32700 | B20
32100 | B21

Biological target: T2, Recombinant Human DLL4 (delta-like …)
Test: ELISA, DLL4-coated plate, 100 nM Fab

ELISA Signal [100 nM Fab] | Binder
0.02 | B16
0 | B17
0 | B18
0 | B19
0.01 | B20
0.01 | B21
